This is an account of results in article PMC4476568.

This experiment concerns the target EGFP-labeled nuclear transport factor 2 (NTF2) (human) (UniProt P61970). Kind of experiment: fluorescence fluctuation spectroscopy brightness analysis (MSQ with z-scan FFS); living E. coli cells in agarose; two-photon excitation at 1000 nm, ~1 mW, focus at the geometric centre of the cell; MSQ-curve fit to Eqs 14 and 22; normalized brightness against EGFP in solution, corrected for cell geometry.

Values joined by “and” are separate entries in the source; they are usually repeats but may differ in a detail not shown here. Equal values may be shown once.

The stoichiometry N is a count of units in the complex or per binding partner. Consider “EGFP-labeled nuclear transport factor 2 (NTF2) (from UniProt P61970 1-127) (natural protein; other documents disagree on this pair)”, for which the stoichiometry N was 2.1 and 1.94.
